This note sets out measurements from article PMC6212729 (Nucleic Acids Research, 2018).

To fix the notation:
T1: GFP-BAF (full length BAF) (UniProt O75531 1-89)
T1 sequence (looked up): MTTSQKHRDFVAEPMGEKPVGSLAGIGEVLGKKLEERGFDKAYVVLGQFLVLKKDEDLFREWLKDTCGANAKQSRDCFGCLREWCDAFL

B1: FLAG-mature lamin A (aa 1 to aa 646) A529V (natural protein, UniProt P02545 1-646, looked up)
chain: METPSQRRATRSGAQASSTPLSPTRITRLQEKEDLQELNDRLAVYIDRVRSLETENAGLRLRITESEEVVSREVSGIKAAYEAELGDARKTLDSVAKERARLQLELSKVREEFKELKARNTKKEGDLIAAQARLKDLEALLNSKEAALSTALSEKRTLEGELHDLRGQVAKLEAALGEAKKQLQDEMLRRVDAENRLQTMKEELDFQKNIYSEELRETKRRHETRLVEIDNGKQREFESRLADALQELRAQHEDQVEQYKKELEKTYSAKLDNARQSAERNSNLVGAAHEELQQSRIRIDSLSAQLSQLQKQLAAKEAKLRDLEDSLARERDTSRRLLAEKEREMAEMRARMQQQLDEYQELLDIKLALDMEIHAYRKLLEGEEERLRLSPSPTSQRSRGRASSHSSQTQGGGSVTKKRKLESTESRSSFSQHARTSGRVAVEEVDEEGKFVRLRNKSNEDQSMGNWQIKRQNGDDPLLTYRFPPKFTLKAGQVVTIWAAGAGATHSPPTDLVWKAQNTWGCGNSLRTVLINSTGEEVAMRKLVRSVTVVEDDEDEDGDDLLHHHHGSHCSSSGDPAEYNLRSRTVLCGTCGQPADKASASGSGAQVGGPISSGSSASSVTVTRSYRSVGGSGGGSFGDNLVTRSY
B2: FLAG-mature lamin A (aa 1 to aa 646) R435C (natural protein, UniProt P02545 1-646, looked up)
chain: B1 chain with R435C, V529A
B3: FLAG-mature lamin A (aa 1 to aa 646) K542N (natural protein, UniProt P02545 1-646, looked up)
chain: B1 chain with V529A, K542N
B4: FLAG-mature lamin A (aa 1 to aa 646) R527H (natural protein, UniProt P02545 1-646, looked up)
chain: B1 chain with R527H, V529A
B5: Human WT emerin fragment from amino acid 1 to amino acid 187 (EmN) (domain or fragment, UniProt P50402 1-187, looked up)
chain: MDNYADLSDTELTTLLRRYNIPHGPVVGSTRRLYEKKIFEYETQRRRLSPPSSSAASSYSFSDLNSTRGDADMYDLPKKEDALLYQSKGYNDDYYEESYFTTRTYGEPESAGPSRAVRQSVTSFPDADAFHHQVHDDDLLSSSEEECKDRERPMYGRDSAYQSITHYRPVSASRSSLDLSYYPTSSS
B6: Human wild-type lamin A/C fragment from amino acid 411 to amino acid 566 (LamIgF) (domain or fragment, UniProt P02545 411-566, looked up)
chain: GGGSVTKKRKLESTESRSSFSQHARTSGRVAVEEVDEEGKFVRLRNKSNEDQSMGNWQIKRQNGDDPLLTYRFPPKFTLKAGQVVTIWAAGAGATHSPPTDLVWKAQNTWGCGNSLRTALINSTGEEVAMRKLVRSVTVVEDDEDEDGDDLLHHHH
B7: Human WT emerin fragment from amino acid 67 to amino acid 221 (EmC) (domain or fragment, UniProt P50402 67-221, looked up)
chain: TRGDADMYDLPKKEDALLYQSKGYNDDYYEESYFTTRTYGEPESAGPSRAVRQSVTSFPDADAFHHQVHDDDLLSSSEEECKDRERPMYGRDSAYQSITHYRPVSASRSSLDLSYYPTSSSTSFMSSSSSSSSWLTRRAIRPENRAPGAGLGQDR

Residue numbers refer to the chain shown, from its start. In names and notes the source's numbering stands.

In series [1] the target is Human Barrier-to-Autointegration Factor (BAF) with all cysteines mutated in alanine (human) (UniProt O75531). The experiment in a line: crystal structure.
Series [2] shares this target. Description: ITC.
Series [3] concerns the target T1, GFP-BAF (full length BAF). Description: proximity ligation.
Series [4] has as its target Human Barrier-to-Autointegration Factor (BAF) with all cysteines mutated in alanine (human) (UniProt O75531). Description: ITC. The source holds these as a separate data set. A general note: Isothermal titration calorimetry measures the heat released or taken up as one component is titrated into another.
Series [5] deals with the molecule itself. Description: negative-staining electron microscopy.
In series [6] the target is B5. Description: NMR titration.

The term stoichiometry N denotes the number of molecules, sites or subunits per partner or assembly. “Human Barrier-to-Autointegration Factor (BAF) with all cysteines mutated in alanine (from UniProt O75531 2-76) (natural protein)” came in with a stoichiometry N in series [1] of 2. The molecule “LamIgF mutant A529V (from UniProt P02545 411-566) (domain or fragment)” returned a fold decrease of affinity against LamIgF WT in series [2] of 5 fold. In turn, “LamIgF mutant R471C (from UniProt P02545 411-566) (domain or fragment)” gave a fold decrease of affinity against LamIgF WT in series [2] of 5 fold. For the molecule B1, the “PLA signals as percent of WT lamin A” value in series [3] is ~50 % of WT. For the molecule B2, the “PLA signals as percent of WT lamin A” value in series [3] was ~50 % of WT.

B3: the “PLA signals as percent of WT lamin A” value in series [3] is ~50 % of WT. As to B4, the “PLA signals as percent of WT lamin A” value in series [3] was ~50 % of WT. Broadly, the Kd is the free concentration of one partner at which half of the binding sites on the other are occupied at equilibrium, for simple one-to-one binding. Lower therefore signals tighter binding. Regarding B5, the Kd in series [4] was found to be 700 nM. The binding result in series [5] is listed as “binds”.

Regarding B6, the binding result in series [6] is given as “binds”. On to B7, for which, in series [5], the binding result is reported as “binds”.
